For the test, the target named is T1, Human 14-3-3γ (human, UniProt P61981 2-247).
T1 sequence: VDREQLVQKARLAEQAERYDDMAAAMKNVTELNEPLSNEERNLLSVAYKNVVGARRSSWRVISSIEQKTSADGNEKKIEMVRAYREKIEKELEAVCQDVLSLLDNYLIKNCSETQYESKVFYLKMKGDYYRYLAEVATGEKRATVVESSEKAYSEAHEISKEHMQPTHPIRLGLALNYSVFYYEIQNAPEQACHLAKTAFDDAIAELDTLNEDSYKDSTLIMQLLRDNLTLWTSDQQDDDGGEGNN
Description: crystal structure.

This is an account of results in publication PMC3872242 (Journal of molecular biology, 2013).

Square brackets hold non-standard residues; d marks the D form. Ends that are not written are not given here. pS = N[C@@H](COP(=O)(O)O)C(=O)O

Turning to MPTPDATTPQAKGFRRAV[pS]ELDAKQAEAIMSPRFIGRRQSLIE [THp-(1-43), Ser19-phosphorylated N-terminal peptide of human tyrosine hydroxylase], the binding result is “binds”.
